T1: human CD20 (B-lymphocyte antigen CD20) (human, UniProt P11836 1-297)
T1 construct: whole, on cells; also called MS4A1
T1 sequence (looked up): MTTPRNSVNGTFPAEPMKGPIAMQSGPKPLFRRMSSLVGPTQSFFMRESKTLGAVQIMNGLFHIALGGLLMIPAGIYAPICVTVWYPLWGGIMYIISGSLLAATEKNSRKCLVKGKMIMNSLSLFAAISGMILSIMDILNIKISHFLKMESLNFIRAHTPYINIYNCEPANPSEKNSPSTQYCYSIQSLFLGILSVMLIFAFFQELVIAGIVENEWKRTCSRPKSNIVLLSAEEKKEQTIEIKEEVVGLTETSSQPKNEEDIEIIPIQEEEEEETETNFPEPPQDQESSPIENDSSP


Target: T1, human CD20 (B-lymphocyte antigen CD20)
Experiment: ELISA on CD20 protein and cell-binding assays

binding result	Binder
binds	anti-CD20 heavy chain-only antibody (UniAb) Clone ID 367912 (antibody, V domains shown, Heavy chain-only antibody (UniAb) from UniRat, called human IgG, with no light chain; also called VH912) VH: EVQLVESGGGVVRPGGSLRLSCAASGFTFDDYGMSWVRQAPGKGLEWVSSINWNGGSKGYADSVKGRFTISRDNAKNSLYLQMNSLRVEDTALYQCARERGYRIGHDSFDIWGQGTLVTVSS
binds	anti-CD20 heavy chain-only antibody (UniAb) Clone ID 367936 (antibody, V domains shown, Heavy chain-only antibody (UniAb) from UniRat, called human IgG, with no light chain; also called VH936) VH: QVQLQESGPGLVKPSETLSLTCTVSGGSVSSGNYYWNWIRQPPGKGLEWIGYIYSSGSTKYNPSLKSRVTILVDTSKNQFSLKLSSVTAADTAVYYCARSRLNGDGLFDDRGQGTLVTVSS
